Measurements as given in publication PMC5947699, “Cloning, purification and structure determination of the HIV integrase-binding domain of lens epithelium-derived growth factor” (Acta Crystallographica. Section F, Structural Biology …, 2018).

Target: the molecule itself
Test: AUC; sedimentation velocity, twofold dilution series starting from 6.5 mg/ml, 50 000 rev/min, 20°C, absorbance (280 nm) and interference optics, c(s) model in SEDFIT; buffer similar to that used for crystallization; monomer to dimer; self-association not saturated

B1: HIV integrase-binding domain (IBD) of lens epithelium-derived growth factor (LEDGF)/p75, His tag cleaved (domain or fragment, human)
chain: GGSMGSGGGGSGGGGSGGGGAAAMETSMDSRLQRIHAEIKNSLKIDNLDVNRCIEALDELASLQVTMQQAQKHTEMITTLKKIRRFKVSQVIMEKSTMLYNKFKNMFLVGE
notes: 24-amino-acid linker ending with methionine that precedes Glu345 of the IBD; left on the protein after TEV cleavage (ENLYFQ/G); Intact mass 11 882 Da measured against 11 881.66 Da calculated; The linker was not visible in the electron density; also called IBD protein; free IBD; source: E. coli B834 (DE3), purified (IMAC, SEC, TEV cleavage, reverse IMAC) for crystallization; E. coli C41 (DE3), …
  Kd: ~2000 µM
  stoichiometry N: 2
